In the supplement of paper PMC11780869:

System: Bacillus subtilis
Assay: cleaved RNA product abundance (RNA/gDNA barcode ratio) relative to median wild-type variant (ratio to wild type); higher = more accumulation of the downstream cleavage product
Conditions: cleavage site: cggR-gapA (positions -7 to +36 mutated)
Protocol: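 MPRA in B. subtilis. Mutagenized RNase Y cleavage-site regions (9% mutation rate) were inserted into a barcoded reporter mRNA (truncated aprE or tetM). Cells were grown in LB at 37°C to OD600 0.3. The cleaved RNA isoform was gel-purified and its barcodes counted; the RNA:gDNA barcode ratio was normalised to the median wild-type variant, and the median over barcodes is reported per variant. The printed sequence is the variable window only; the reporter flanks are not printed.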

[1] = experiment (reporter, strain, medium): exp 2b: truncated aprE reporter, strain BJT200
[2] = experiment (reporter, strain, medium): exp 4a: truncated aprE reporter, strain BJT201 with 2% xylose (RNase J1 expressed)

Sequence	cleaved RNA product abundance [1]	cleaved RNA product abundance [2]	cleaved RNA product abundance (experiment (reporter, strain, medium): exp 6: tetM reporter, strain 168)
ACAGACGAAGGAGCCGCAAAAAAGTTATTAAGGGATCAATAATCCCTCAATATAAATATCTCTCACTTATTTAAA	0.923	0.712	
ACAGACGAAGGAGCCGCAAAAAAGTTATTAAGGGATGAAAAATCCCTCAATATAAATATCTCTCACTTATTTAAA	0.785	0.695	
ACAGACGAAGGAGCCGCAAAAAAGTTATTAAGGGATGAACAATCCCTCAATATAAATATCTCTCACTTATTTAAA	0.87	0.764	
ACAGACGAAGGAGCCGCAAAAAAGTTATTAAGGGATGAAGAATCCCTCAATATAAATATCTCTCACTTATTTAAA		0.918	
ACAGACGAAGGAGCCGCAAAAAAGTTATTAAGGGATGAATAAACCCTCAATATAAATATCTCTCACTTATTTAAA	0.468	0.631	
ACAGACGAAGGAGCCGCAAAAAAGTTATTAAGGGATGAATAAACCCTCTATATAAATATCTCTCACTTATTTAAA		0.22	
ACAGACGAAGGAGCCGCAAAAAAGTTATTAAGGGATGAATAACCCCTCAATATAAATATCTCTCACTTATTTAAA	0.455	0.458	
ACAGACGAAGGAGCCGCAAAAAAGTTATTAAGGGATGAATAAGCCCTCAATATAAATATCTCTCACTTATTTAAA	0.639	0.793	
ACAGACGAAGGAGCCGCAAAAAAGTTATTAAGGGATGAATAATACCTCAATATAAATATCTCTCACTTATTTAAA	0.139	0.17	
ACAGACGAAGGAGCCGCAAAAAAGTTATTAAGGGATGAATAATCACTCAATATAAATATCTCTCACTTATTTAAA	0.108	0.12	
ACAGACGAAGGAGCCGCAAAAAAGTTATTAAGGGATGAATAATCCATCAATATAAATATCTCTCACTTATTTAAA	0.17	0.307	
ACAGACGAAGGAGCCGCAAAAAAGTTATTAAGGGATGAATAATCCCACAATATAAATATCTCTCACTTATTTAAA	0.237	0.254	
ACAGACGAAGGAGCCGCAAAAAAGTTATTAAGGGATGAATAATCCCCCAATATAAATATCTCTCACTTATTTAAA	0.238	0.35	
ACAGACGAAGGAGCCGCAAAAAAGTTATTAAGGGATGAATAATCCCGCAATATAAATATCTCTCACTTATTTAAA	0.141	0.231	
ACAGACGAAGGAGCCGCAAAAAAGTTATTAAGGGATGAATAATCCCTAAATATAAATATCTCTCACTTATTTAAA	0.57	0.765	
ACAGACGAAGGAGCCGCAAAAAAGTTATTAAGGGATGAATAATCCCTCAAAATAAATATCTCTCACTTATTTAAA	0.349	0.376	
ACAGACGAAGGAGCCGCAAAAAAGTTATTAAGGGATGAATAATCCCTCAACATAAATATCTCTCACTTATTTAAA	0.239	0.272	
ACAGACGAAGGAGCCGCAAAAAAGTTATTAAGGGATGAATAATCCCTCAAGATAAATATCTCTCACTTATTTAAA	0.251		
ACAGACGAAGGAGCCGCAAAAAAGTTATTAAGGGATGAATAATCCCTCAATACAAATATCTCTCACTTATTTAAA		0.0755	
ACAGACGAAGGAGCCGCAAAAAAGTTATTAAGGGATGAATAATCCCTCAATATAAAAATCTCTCACTTATTTAAA	1.08	0.82	

Sequence	cleaved RNA product abundance [1]	cleaved RNA product abundance [2]	cleaved RNA product abundance (experiment (reporter, strain, medium): exp 6: tetM reporter, strain 168)
ACAGACGAAGGAGCCGCAAAAAAGTTATTAAGGGATGAATAATCCCTCAATATAAACATCTCTCACTTATTTAAA		0.766	
ACAGACGAAGGAGCCGCAAAAAAGTTATTAAGGGATGAATAATCCCTCAATATAAAGATCTCTCACTTATTTAAA		0.56	
ACAGACGAAGGAGCCGCAAAAAAGTTATTAAGGGATGAATAATCCCTCAATATAAATAACTCTCACTTATTTAAA		1.13	
ACAGACGAAGGAGCCGCAAAAAAGTTATTAAGGGATGAATAATCCCTCAATATAAATACCTCTCACTTATTTAAA		0.493	
ACAGACGAAGGAGCCGCAAAAAAGTTATTAAGGGATGAATAATCCCTCAATATAAATATCTCTCACTTATTTAAA	1.06	1.04	1.04
ACAGACGAAGGAGCCGCAAAAAAGTTATTAAGGGATGAATAATCCCTCAATATAAATCTCTCTCACTTATTTAAA		0.362	
ACAGACGAAGGAGCCGCAAAAAAGTTATTAAGGGATGAATAATCCCTCAATATAAATGTCTCTCACTTATTTAAA	0.243	0.309	
ACAGACGAAGGAGCCGCAAAAAAGTTATTAAGGGATGAATAATCCCTCAATATAAATTTCTCTCACTTATTTAAA		1.04	
ACAGACGAAGGAGCCGCAAAAAAGTTATTAAGGGATGAATAATCCCTCAATATACATATCTCTCACTTATTTAAA		0.996	
ACAGACGAAGGAGCCGCAAAAAAGTTATTAAGGGATGAATAATCCCTCAATATAGATATCTCTCACTTATTTAAA	0.991	0.644	
ACAGACGAAGGAGCCGCAAAAAAGTTATTAAGGGATGAATAATCCCTCAATATATATATCTCTCACTTATTTAAA		1.08	
ACAGACGAAGGAGCCGCAAAAAAGTTATTAAGGGATGAATAATCCCTCAATATGAATATCTCTCACTTATTTAAA	0.135		
ACAGACGAAGGAGCCGCAAAAAAGTTATTAAGGGATGAATAATCCCTCAATCTAAATATCTCTCACTTATTTAAA	0.137		
ACAGACGAAGGAGCCGCAAAAAAGTTATTAAGGGATGAATAATCCCTCACTATAAATATCTCTCACTTATTTAAA		0.537	
ACAGACGAAGGAGCCGCAAAAAAGTTATTAAGGGATGAATAATCCCTCAGTATAAATATCTCTCACTTATTTAAA	0.266	0.42	
ACAGACGAAGGAGCCGCAAAAAAGTTATTAAGGGATGAATAATCCCTCATTATAAATATCTCTCACTTATTTAAA	0.293	0.417	
ACAGACGAAGGAGCCGCAAAAAAGTTATTAAGGGATGAATAATCCCTCCATATAAATATCTCTCACTTATTTAAA		0.348	
ACAGACGAAGGAGCCGCAAAAAAGTTATTAAGGGATGAATAATCCCTCGATATAAATATCTCTCACTTATTTAAA	0.396	0.555	
ACAGACGAAGGAGCCGCAAAAAAGTTATTAAGGGATGAATAATCCCTCTATATAAATATCTCTCACTTATTTAAA		0.613	
